Assay results reported in the supplement of paper PMC9732359.
± gives the uncertainty stated by the source.

Assay: protein stability index of a GFP-peptide fusion (yeast GPS) (PSI 1-4); higher = more stable; sorted into four equal gates, so the index is relative within each strain
Conditions: doa10∆
How it was run: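 Tiled 17-residue yeast protein peptides were fused downstream of GFP in a plasmid that also expresses Cherry, and the pooled library was carried in yeast. Mid-log cultures in leucine-free medium were sorted into four equal gates by GFP/Cherry fluorescence ratio, and plasmids from each gate were PCR-amplified and Illumina-sequenced, with reads assigned to strains by barcodes. The protein stability index for each peptide was each gate's read frequency times its gate number, summed.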

Row | Sequence | protein stability index
1 | VVDTEETATLIMNELYR [SMC3] | 3.02 ± 0.086
2 | VVETITSLLNKVLKSGS [RRP42] | 2.67 ± 0.11
3 | VVFAVEKLITSKLLVPQ [PRE10] | 2.03 ± 0.14
4 | VVFDSNEAPPKTSLADW [YMR153W/NUP53] | 3.19 ± 0.06
5 | VVIAADTRSTQGPIVAD [PUP1] | 2.65 ± 0.1
6 | VVKGLPDISRAVINIRD [RPO31] | 2.83 ± 0.083
7 | VVNQPTGKIVDVVGTLS [FAS1] | 3.1 ± 0.12
8 | VVSTTAVIESVVNQPTG [FAS1] | 2.06 ± 0.078
9 | VVTRSKEAFEEEIKQSA [SMC1] | 3.05 ± 0.14
10 | VVYHPSNNELVRTNTLT [RPS8A] | 2.647 ± 0.019
11 | VYKIYNHVMPLKPVDKL [SIN4] | 1.84 ± 0.064
12 | WAVKEGPLAEEPIYGVQ [SNU114] | 2.8 ± 0.067
13 | WELYTDFNEIVQYLSGA [POP3] | 2.55 ± 0.13
14 | WIKFLLHTLYLRPASAI [SSN8] | 1.74 ± 0.045
15 | WKATYSNEFKCMSVITA [YGL100W/SEH1] | 1.87 ± 0.056
16 | WKTAEEVSALVRSLPKE [PRP8] | 1.21 ± 0.068
17 | WLEQFLSCVKNDTISED [NUT1] | 1.73 ± 0.046
18 | WLKEYEDETLRRIKEAE [YIL149C/MLP2] | 2.83 ± 0.11
19 | WLWPLCRGELKADIGKP [CDC53] | 2.11 ± 0.078
20 | WPKTRGVAMNPVDHPHG [RPL2A] | 2.37 ± 0.078
21 | WQQVTALAQQKLLTPQD [GAL11] | 2.29 ± 0.058

Row | Sequence | protein stability index
22 | WQSGLKMYDYEEKEESN [RPN11] | 2.98 ± 0.13
23 | WRFHTPQKYVLHPQLHE [SIN4] | 2.17 ± 0.071
24 | WSHNGPFETFDHASIRR [CYT1] | 2.79 ± 0.06
25 | WVNNPKKRFTPHTVIRR [YDL088C/ASM4] | 3.42 ± 0.23
26 | WYLILSIISSKTSCVVE [RGR1] | 1.46 ± 0.13
27 | YAIKKKDELERVAKSNR [RPS5] | 3.41 ± 0.061
28 | YAKFKRNTMMIQCQIDK [RGR1] | 2.23 ± 0.055
29 | YASYFPYLLETYANVLI [RPN7] | 1.57 ± 0.088
30 | YATKRQEAIQQNRRLAF [PRP8] | 2.43 ± 0.11
31 | YATQVKTDNTVDKFDFY [RPT3] | 2.39 ± 0.05
32 | YCDPNTQEIRPVNTGVL [RRP40] | 2.62 ± 0.055
33 | YDIDEIDHSDESNRQSV [ESC2] | 3.19 ± 0.14
34 | YDPKDGLYKMMEERDGA [AAR2] | 3.41 ± 0.12
35 | YDRNSNNNHKDKKLLRR [SWI1] | 3.09 ± 0.053
36 | YEAYPNTSLPPSILEDS [FAS1] | 2.15 ± 0.033
37 | YEKAQKDLENAQVEMKS [SMC1] | 3.11 ± 0.11
38 | YFGENSSISWKNIAQCL [YJL039C/NUP192] | 1.95 ± 0.084
39 | YFKMFPASKHDKEVVYF [RPC34] | 2.72 ± 0.16
40 | YFYDLDVLKDGENNINF [BRN1] | 3.57 ± 0.22
41 | YGLIRGLKFASFIFQYY [PRP8] | 2.23 ± 0.11
42 | YHLTKAVKLGDLKKFTS [RPN3] | 1.77 ± 0.065

Row | Sequence | protein stability index
43 | YHRLSNKDMIKNLVKVL [CSN12] | 3.21 ± 0.26
44 | YIFFGPIYYQKLKHMVL [RET1] | 1.2 ± 0.062
45 | YIHRIGRTGRAANEGTA [PRP28] | 3.1 ± 0.11
46 | YIRVNHADKDTFSSSIS [POP8] | 2.76 ± 0.049
47 | YISAELYAQLRENGLVP [SNU114] | 2.38 ± 0.068
48 | YKRQKSSLLYTYDENDD [ESC2] | 1.25 ± 0.059
49 | YKYKMRYVYAHFPINVN [RPL9A] | 2.29 ± 0.051
50 | YLDADVAKLANWFLEVY [YML031W/NDC1] | 2.45 ± 0.081
51 | YLEDIIGTANYKPLIEE [SMC4] | 2.95 ± 0.1
52 | YLHDNASKVLLKIFLYL [IRR1] | 1.92 ± 0.099
53 | YLIDHIKVDGAVGNLGN [RPL22B] | 2.41 ± 0.23
54 | YLKVSEEEIKKFDSRIR [PRP8] | 2.9 ± 0.072
55 | YLVEAPWNDDYPFLLSF [YML103C/NUP188] | 1.4 ± 0.048
56 | YMFANLEFSIYHRLSNK [CSN12] | 2.13 ± 0.072
57 | YMLIEEAASSNKSFIVD [ITC1] | 2.96 ± 0.078
58 | YMRLWEINETEFIRCGC [RMP1] | 3.31 ± 0.13
59 | YNHNDGGDGRDYKGAKL [RRI1] | 2.57 ± 0.13
60 | YNIELPLPPRIDPSVTM [RPT1] | 2.44 ± 0.21
61 | YNLRSLNLINAKLWFYI [RPN3] | 1.32 ± 0.046
62 | YNNNTIRKLLEKINRMI [CSI1] | 3 ± 0.18
63 | YNNRKCWPKDSRMRLIR [PRP8] | 2.05 ± 0.09

Row | Sequence | protein stability index
64 | YNRHKLQELIVNGPNVH [RPO31] | 1.19 ± 0.11
65 | YNRYRDLMISCLMNQET [MTR3] | 2.44 ± 0.062
66 | YPVYTRLRTLCRDSDDH [DIS3] | 2.56 ± 0.2
67 | YQLNGVAPFMIKYEFNG [YMR129W/POM152] | 2.63 ± 0.097
68 | YQSPTIFKIVQSRLMST [MED6] | 1.71 ± 0.1
69 | YQSSVQEPFLNSSNYAE [PRP8] | 2.99 ± 0.055
70 | YRNNEPAGFTHKLSNWL [YDL088C/ASM4] | 2.49 ± 0.072
71 | YSDENDPSISNNIRQAI [RRP4] | 2.53 ± 0.077
72 | YSENGKHDSLRYRLLSD [RPN1] | 2.5 ± 0.073
73 | YSIEMKPYSGKLLKVCL [ECM29] | 2.62 ± 0.077
74 | YSLEAIKLGSTAIGIAT [PUP2] | 1.54 ± 0.066
75 | YTDELEEDVYLDPLARV [FAS2] | 3.33 ± 0.095
76 | YTYHSTNKDNKAELIKP [ARP9] | 2.74 ± 0.065
77 | YTYSSTLSHLRRTNTPI [RPB2] | 2.06 ± 0.043
78 | YVAPTKKEYIELDILNK [SRB4] | 2.76 ± 0.17
79 | YVEAQHKLVFVVRIKGI [RPL7A] | 1.09 ± 0.058
80 | YVLSTAVEFESVPLRKG [BRR2] | 1.7 ± 0.043
81 | YVSDSDDSSSDNDSLTD [SIR4] | 2.51 ± 0.051
